Test results as given in patent US20260097113A1 (Pfizer, published 2026).

Key:
[1] = biological target: RSV A + RSV B bivalent composition (RSV subtype A; RSV subtype B); test: AM14 prefusion assay relative to standard; RSV A + RSV B 240 µg/mL each, 2% sucrose + 4% mannitol; post-lyo 2 months at 5°C
[2] = biological target: RSV A + RSV B bivalent composition (RSV subtype A; RSV subtype B); test: AM14 prefusion assay relative to standard; RSV A + RSV B 240 µg/mL each, 2% sucrose + 4% mannitol; post-lyo T0

Chain of AM14 (trimeric prefusion specific antibody of the AM14 ELISA) (VH): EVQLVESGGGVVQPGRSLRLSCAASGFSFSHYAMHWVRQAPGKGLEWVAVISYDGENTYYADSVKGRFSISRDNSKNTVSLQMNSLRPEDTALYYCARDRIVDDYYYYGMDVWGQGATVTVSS
Chain of AM14 (trimeric prefusion specific antibody of the AM14 ELISA) (VL): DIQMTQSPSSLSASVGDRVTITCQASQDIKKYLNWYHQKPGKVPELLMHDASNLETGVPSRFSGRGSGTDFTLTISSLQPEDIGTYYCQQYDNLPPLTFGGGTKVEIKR

**Q.** Which results are given for “AM14 (trimeric prefusion specific antibody of the AM14 ELISA)”?
**A.** AM14 Prefusion Content (%), relative to standard [1]: 116%; AM14 Prefusion Content (%), relative to standard [2]: 81%
